Source: US6962973B1, “Porcine α2δ-1 calcium channel subunit cDNA and soluble secreted α2δ-1 subunit polypeptides” (Warner-Lambert Company, priority 1999, dated 2005)

B1: mutant extending to residue 1063: C-terminally truncated porcine α2δ-1 subunit, residues 1064 to 1091 deleted (protein, listed as Sus scrofa)
chain: MAAGCLLALTLTLFQSLLIGPSSQEPFPSAVTIKSWVDKMQEDLVTLAKTASGVNQLVDIYEKYQDLYTVEPNNARQLVEIAARDIEKLLSNRSKALVRLALEAEKVQAAHQWREDFASNEVVYYNAKDDLDPEKNDSEPGSQRIKPVFIDDANFGRQISYQHAAVHIPTDIYEGSTIVLNELNWTSALDEVFKKNREEDPSLLWQVFGSATGLARYYPASPWVDNSRTPNKIDLYDVRRRPWYIQGAASPKDMLILVDVSGSVSGLTLKLIRTSVSEMLETLSDDDFVNVASFNSNAQDVSCFQHLVQANVRNKKVLKDAVNNITAKGITDYKKGFSFAFEQLLNYNVSRANCNKIIMLFTDGGEERAQEIFAKYNKDKKVRVFTFSVGQHNYDRGPIQWMACENKGYYYEIPSIGAIRINTQEYLDVLGRPMVLAGDKAKQVQWTNVYLDALELGLVITGTLPVFNITGQNENKTNLKNQLILGVMGVDVSLEDIKRLTPRFTLCPNGYYFAIDPNGYVLLHPNLQPKNPKSQEPVTLDFLDAELENDIKVEIRNKMIDGESGEKTFRTLVKSQDERYIDKGNRTYTWTPVNGTDYSLALVLPTYSFYYIKAKIEETITQARSKKGKMKDSETLKPDNFEESGYTFIAPRDYCNDLKISDNNTEFLLNFNEFIDRKTPNNPSCNTDLINRVLLDAGFTNELVQNYWSKQKNIKGVKARFVVTDGGITRVYPKEAGENWQENPETYEDSFYKRSLDNDNYVFTAPYFNKSGPGAYESGIMVSKAVEIYIQGKLLKPAVVGIKIDVNSWIENFTKTSIRDPCAGPVCDCKRNSDVMDCVILDDGGFLLMANHDDYTNQIGRFFGEIDPSLMRHLVNISVYAFNKSYDYQSVCEPGAAPKQGAGHRSAYVPSIADILHIGWWATAAAWSILQQFLLSLTFPRLLEAVEMEDDDFTASLSKQSCITEQTQYFFDNDSKSFSGVLDCGNCSRIFHVEKLMNTNLIFIMVESKGTCPCDTRLLIQAEQTSDGPDPCDMVKQPRYRKGPDVCFDNNALEDYTDCGGVS
B2: mutant extending to residue 1036: C-terminally truncated porcine α2δ-1 subunit, residues 1037 to 1091 deleted (protein, listed as Sus scrofa)
chain: MAAGCLLALTLTLFQSLLIGPSSQEPFPSAVTIKSWVDKMQEDLVTLAKTASGVNQLVDIYEKYQDLYTVEPNNARQLVEIAARDIEKLLSNRSKALVRLALEAEKVQAAHQWREDFASNEVVYYNAKDDLDPEKNDSEPGSQRIKPVFIDDANFGRQISYQHAAVHIPTDIYEGSTIVLNELNWTSALDEVFKKNREEDPSLLWQVFGSATGLARYYPASPWVDNSRTPNKIDLYDVRRRPWYIQGAASPKDMLILVDVSGSVSGLTLKLIRTSVSEMLETLSDDDFVNVASFNSNAQDVSCFQHLVQANVRNKKVLKDAVNNITAKGITDYKKGFSFAFEQLLNYNVSRANCNKIIMLFTDGGEERAQEIFAKYNKDKKVRVFTFSVGQHNYDRGPIQWMACENKGYYYEIPSIGAIRINTQEYLDVLGRPMVLAGDKAKQVQWTNVYLDALELGLVITGTLPVFNITGQNENKTNLKNQLILGVMGVDVSLEDIKRLTPRFTLCPNGYYFAIDPNGYVLLHPNLQPKNPKSQEPVTLDFLDAELENDIKVEIRNKMIDGESGEKTFRTLVKSQDERYIDKGNRTYTWTPVNGTDYSLALVLPTYSFYYIKAKIEETITQARSKKGKMKDSETLKPDNFEESGYTFIAPRDYCNDLKISDNNTEFLLNFNEFIDRKTPNNPSCNTDLINRVLLDAGFTNELVQNYWSKQKNIKGVKARFVVTDGGITRVYPKEAGENWQENPETYEDSFYKRSLDNDNYVFTAPYFNKSGPGAYESGIMVSKAVEIYIQGKLLKPAVVGIKIDVNSWIENFTKTSIRDPCAGPVCDCKRNSDVMDCVILDDGGFLLMANHDDYTNQIGRFFGEIDPSLMRHLVNISVYAFNKSYDYQSVCEPGAAPKQGAGHRSAYVPSIADILHIGWWATAAAWSILQQFLLSLTFPRLLEAVEMEDDDFTASLSKQSCITEQTQYFFDNDSKSFSGVLDCGNCSRIFHVEKLMNTNLIFIMVESKGTCPCDTRLLIQAEQTSDGPDPCDMVK
B3: mutant extending to residue 1018: C-terminally truncated porcine α2δ-1 subunit, residues 1019 to 1091 deleted (protein, listed as Sus scrofa)
chain: MAAGCLLALTLTLFQSLLIGPSSQEPFPSAVTIKSWVDKMQEDLVTLAKTASGVNQLVDIYEKYQDLYTVEPNNARQLVEIAARDIEKLLSNRSKALVRLALEAEKVQAAHQWREDFASNEVVYYNAKDDLDPEKNDSEPGSQRIKPVFIDDANFGRQISYQHAAVHIPTDIYEGSTIVLNELNWTSALDEVFKKNREEDPSLLWQVFGSATGLARYYPASPWVDNSRTPNKIDLYDVRRRPWYIQGAASPKDMLILVDVSGSVSGLTLKLIRTSVSEMLETLSDDDFVNVASFNSNAQDVSCFQHLVQANVRNKKVLKDAVNNITAKGITDYKKGFSFAFEQLLNYNVSRANCNKIIMLFTDGGEERAQEIFAKYNKDKKVRVFTFSVGQHNYDRGPIQWMACENKGYYYEIPSIGAIRINTQEYLDVLGRPMVLAGDKAKQVQWTNVYLDALELGLVITGTLPVFNITGQNENKTNLKNQLILGVMGVDVSLEDIKRLTPRFTLCPNGYYFAIDPNGYVLLHPNLQPKNPKSQEPVTLDFLDAELENDIKVEIRNKMIDGESGEKTFRTLVKSQDERYIDKGNRTYTWTPVNGTDYSLALVLPTYSFYYIKAKIEETITQARSKKGKMKDSETLKPDNFEESGYTFIAPRDYCNDLKISDNNTEFLLNFNEFIDRKTPNNPSCNTDLINRVLLDAGFTNELVQNYWSKQKNIKGVKARFVVTDGGITRVYPKEAGENWQENPETYEDSFYKRSLDNDNYVFTAPYFNKSGPGAYESGIMVSKAVEIYIQGKLLKPAVVGIKIDVNSWIENFTKTSIRDPCAGPVCDCKRNSDVMDCVILDDGGFLLMANHDDYTNQIGRFFGEIDPSLMRHLVNISVYAFNKSYDYQSVCEPGAAPKQGAGHRSAYVPSIADILHIGWWATAAAWSILQQFLLSLTFPRLLEAVEMEDDDFTASLSKQSCITEQTQYFFDNDSKSFSGVLDCGNCSRIFHVEKLMNTNLIFIMVESKGTCPCDTRL

Assay: [3H]gabapentin binding of C-terminally truncated porcine α2δ-1 subunit mutants expressed in COS-7 cells
Details: C-terminal deletions of the δ component, residues of SEQ ID NO:5
Experimental: All media contained 50 units/ml penicillin and 50 microgramm per ml streptomycin. COS-7 cells were maintained in Dulbecco's modified Eagle's medium+glutamax, 10% fetal bovine serum (gamma irradiated) in a 37° C./5% CO2 incubator and passaged by trypsinization. For transient expression experiments, 150-mm culture dishes were seeded with […] and incubated for 16 h. Cells were then washed twice with 30 ml of optiMEM-1 and transfected (t=0 h) with 30 microgramm of plasmid DNA by lipofectamine-mediated transfection in 21 ml of optiMEM-1. At t=6 h, a further 21 ml of optiMEM-1 was added. At t=24 h, the medium was replaced with 42 ml of optiMEM-1. At t=48 h, the cells were washed twice with 30 ml of phosphate-buffered saline and then harvested in 3 ml of buffer A ([…], 1 mM EGTA, 20% glycerol, 10 mm HEPES, pH 7.4, at 4° C.) plus 0.1 mM phenymethylsulfonyl fluoride using a cell scraper.
All subsequent operations were performed at 4° C. The cells were rotated on a Spiramix (Denley Instruments) for 30 min, centrifuged at 20,000×g for 5 min, resuspended in 1 ml of buffer A, recentrifuged at 20,000×g for 5 min, and finally resuspended in 400 microliter of buffer A. Membrane preparations were stored at −70° C. until required.
Protein concentrations were determined by the method of Bradford using bovine serum albumin as a standard. [^3H]Gabapentin binding assays were performed as described previously. For saturation analysis, incubations were performed in duplicate. All other incubations were performed in triplicate. SDS-polyacrylamide gel electrophoresis and Western blotting were performed using the Novex gel and buffer system (Novex Europe, Frankfurt, Germany). Molecular weights were determined by reference to Kaleidoscope markers (Bio-Rad). Detection was performed using the ECL system (Amersham).

| Molecule | [^3H]gabapentin binding |
| --- | --- |
| B1 | exhibit gabapentin binding activity |
| B2 | exhibit gabapentin binding activity |
| B3 | exhibit gabapentin binding activity |
